From PMC7159909 come the findings set out here.

A short description of this series: Co-IP and immunoblot, WSN-infected A549. The following applies: glycan lost; control: si-ctrl.

B1: interferon regulatory factor-5 (IRF5): si-OGT (protein)
parent chain: MNQSIPVAPTPPRRVRLKPWLVAQVNSCQYPGLQWVNGEKKLFCIPWRHATRHGPSQDGDNTIFKAWAKETGKYTEGVDEADPAKWKANLRCALNKSRDFRLIYDGPRDMPPQPYKIYEVCSNGPAPTDSQPPEDYSFGAGEEEEEEEELQRMLPSLSLTEDVKWPPTLQPPTLQPPVVLGPPAPDPSPLAPPPGNPAGFRELLSEVLEPGPLPASLPPAGEQLLPDLLISPHMLPLTDLEIKFQYRGRPPRALTISNPHGCRLFYSQLEATQEQVELFGPISLEQVRFPSPEDIPSDKQRFYTNQLLDVLDRGLILQLQGQDLYAIRLCQCKVFWSGPCASAHDSCPNPIQREVKTKLFSLEHFLNELILFQKGQTNTPPPFEIFFCFGEEWPDRKPREKKLITVQVVPVAARLLLEMFSGELSWSADSIRLQISNPDLKDRMVEQFKELHHIWQSQQRLQPVAQAPPGAGLGVGQGPWPMHPAGMQ
Take B1: the “other: ubiquitination” value is recorded as “decreases”.
